Here are results for 1 molecule from patent publication US20220332804A1 (CSL INNOVATION, published 2022).

Assay in all cases: SPR, antibody captured, C2 as analyte;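 further: biacore at 37 °C, anti-C2 mAbs held by immobilised goat anti-human IgG, C2 alanine or serine mutants injected, double-referenced sensorgrams fitted to a 1:1 kinetic or steady-state model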
(In SPR one partner is held on a chip, and binding of the other changes the refractive index at the surface.)

For one assay, the target named is T1, human C2 E275A (human, UniProt P06681 21-752).
T1 sequence: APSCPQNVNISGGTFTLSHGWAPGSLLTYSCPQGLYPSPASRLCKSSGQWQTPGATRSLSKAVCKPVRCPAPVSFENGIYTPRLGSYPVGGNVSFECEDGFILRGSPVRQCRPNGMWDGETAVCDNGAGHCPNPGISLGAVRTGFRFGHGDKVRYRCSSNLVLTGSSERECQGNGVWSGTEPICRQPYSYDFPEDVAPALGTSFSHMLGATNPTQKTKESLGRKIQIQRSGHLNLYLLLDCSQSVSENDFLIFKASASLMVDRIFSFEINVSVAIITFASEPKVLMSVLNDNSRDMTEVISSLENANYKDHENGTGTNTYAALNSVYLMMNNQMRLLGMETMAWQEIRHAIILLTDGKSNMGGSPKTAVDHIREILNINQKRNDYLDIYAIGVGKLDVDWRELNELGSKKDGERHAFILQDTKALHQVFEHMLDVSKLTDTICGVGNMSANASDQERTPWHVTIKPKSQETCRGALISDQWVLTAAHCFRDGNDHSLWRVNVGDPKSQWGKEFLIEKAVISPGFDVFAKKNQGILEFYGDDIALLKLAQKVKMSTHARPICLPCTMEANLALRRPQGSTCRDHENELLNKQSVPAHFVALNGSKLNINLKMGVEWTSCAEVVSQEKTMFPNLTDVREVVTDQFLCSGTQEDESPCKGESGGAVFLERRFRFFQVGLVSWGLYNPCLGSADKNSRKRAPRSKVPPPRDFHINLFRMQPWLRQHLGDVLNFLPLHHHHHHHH

In the next assay the target is T2, human C2 N327A (human, UniProt P06681 21-752).
T2 sequence: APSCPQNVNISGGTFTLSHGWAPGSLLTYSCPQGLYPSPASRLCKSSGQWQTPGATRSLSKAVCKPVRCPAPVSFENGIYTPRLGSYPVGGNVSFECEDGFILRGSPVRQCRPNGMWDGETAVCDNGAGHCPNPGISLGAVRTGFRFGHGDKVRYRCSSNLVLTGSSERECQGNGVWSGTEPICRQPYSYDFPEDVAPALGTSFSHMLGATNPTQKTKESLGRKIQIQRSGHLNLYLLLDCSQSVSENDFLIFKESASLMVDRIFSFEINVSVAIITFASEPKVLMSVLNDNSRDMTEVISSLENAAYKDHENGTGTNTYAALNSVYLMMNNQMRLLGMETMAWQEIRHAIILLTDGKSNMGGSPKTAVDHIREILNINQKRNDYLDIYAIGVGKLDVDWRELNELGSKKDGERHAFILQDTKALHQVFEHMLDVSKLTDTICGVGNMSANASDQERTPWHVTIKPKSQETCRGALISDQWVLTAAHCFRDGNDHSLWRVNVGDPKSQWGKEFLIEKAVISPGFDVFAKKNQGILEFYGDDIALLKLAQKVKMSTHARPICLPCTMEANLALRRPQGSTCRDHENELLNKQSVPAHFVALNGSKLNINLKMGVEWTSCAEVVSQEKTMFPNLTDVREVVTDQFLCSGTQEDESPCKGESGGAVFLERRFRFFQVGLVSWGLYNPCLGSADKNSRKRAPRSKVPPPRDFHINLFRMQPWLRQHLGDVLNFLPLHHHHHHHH

The target in a further assay is T3, human C2 A436S (human, UniProt P06681 21-752).
T3 sequence: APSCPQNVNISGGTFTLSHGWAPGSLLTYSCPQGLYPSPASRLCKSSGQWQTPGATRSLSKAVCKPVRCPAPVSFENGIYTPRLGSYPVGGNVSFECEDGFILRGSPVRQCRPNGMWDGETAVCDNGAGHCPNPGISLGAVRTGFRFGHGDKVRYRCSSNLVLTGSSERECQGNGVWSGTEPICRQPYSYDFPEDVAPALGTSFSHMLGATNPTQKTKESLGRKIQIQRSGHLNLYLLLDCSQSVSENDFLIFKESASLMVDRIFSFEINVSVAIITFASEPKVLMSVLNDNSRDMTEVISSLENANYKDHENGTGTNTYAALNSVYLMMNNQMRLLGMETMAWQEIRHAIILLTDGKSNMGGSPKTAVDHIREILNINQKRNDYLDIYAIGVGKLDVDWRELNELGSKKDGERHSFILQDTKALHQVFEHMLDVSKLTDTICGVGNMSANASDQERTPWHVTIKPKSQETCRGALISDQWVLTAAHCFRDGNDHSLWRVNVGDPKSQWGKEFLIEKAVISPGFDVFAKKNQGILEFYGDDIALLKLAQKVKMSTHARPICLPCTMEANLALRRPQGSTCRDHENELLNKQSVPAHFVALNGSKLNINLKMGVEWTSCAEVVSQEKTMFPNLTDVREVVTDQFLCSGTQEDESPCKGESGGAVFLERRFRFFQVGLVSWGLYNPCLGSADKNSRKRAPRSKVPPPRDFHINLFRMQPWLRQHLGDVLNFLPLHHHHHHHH

The next assay has as its target T4, human C2 N471A (human, UniProt P06681 21-752).
T4 sequence: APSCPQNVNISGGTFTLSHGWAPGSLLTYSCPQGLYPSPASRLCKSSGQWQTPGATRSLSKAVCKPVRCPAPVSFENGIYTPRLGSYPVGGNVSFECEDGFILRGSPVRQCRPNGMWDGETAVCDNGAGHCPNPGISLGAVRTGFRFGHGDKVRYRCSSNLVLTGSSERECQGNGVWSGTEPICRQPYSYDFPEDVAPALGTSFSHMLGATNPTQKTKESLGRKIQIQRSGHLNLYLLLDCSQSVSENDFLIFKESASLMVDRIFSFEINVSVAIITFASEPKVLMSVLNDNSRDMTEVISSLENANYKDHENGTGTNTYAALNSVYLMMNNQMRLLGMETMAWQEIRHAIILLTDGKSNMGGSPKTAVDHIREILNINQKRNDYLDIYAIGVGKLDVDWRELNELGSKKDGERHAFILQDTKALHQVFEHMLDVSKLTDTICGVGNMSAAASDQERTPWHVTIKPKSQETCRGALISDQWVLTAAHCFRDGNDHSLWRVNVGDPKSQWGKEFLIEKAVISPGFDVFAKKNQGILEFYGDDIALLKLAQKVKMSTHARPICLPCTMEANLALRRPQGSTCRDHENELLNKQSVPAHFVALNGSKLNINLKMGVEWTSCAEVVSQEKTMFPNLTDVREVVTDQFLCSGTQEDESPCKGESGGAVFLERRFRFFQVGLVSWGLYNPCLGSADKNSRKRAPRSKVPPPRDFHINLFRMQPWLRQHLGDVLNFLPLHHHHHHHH

B1: RF16-242 (antibody, human IgG4 S228P, lambda, V domains shown)
VH: EVQLLQSGAEVKKPGESLKISCKGSGYSFTSYWIGWVRQMPGKGLEWMGIIYPGDSDTRYSPSFQGQVTISADKSISTAYLQWSSLKASDTAMYYCARRGHYGDYFDYWGQGTLVTVSS
VL: SYELTQPPSVSVSPGQTARITCSGDALPKKYAYWYHQKSGQAPVLVIYEDRRRPSEIPERFSGSSSGTMATLTITGAQVEDEGVYFCYSRDRAGNQRVFGGGTQLTVLG
notes: pH-dependent anti-C2 antibody from a phage display library
B1: the Kd (in general, a measure of binding affinity in units of concentration) amounted to 42.8 nM with human C2 E275A, 37.5 nM in the assay with human C2 N327A, 4.9 nM with human C2 A436S and 9.2 nM with human C2 N471A.
